First the molecules themselves.
B1: IgG1-F1264 (antibody)
heavy: QVQLQESGPGLVKPSETLSLTCAVSGHSISHDHAWSWVRQPPGEGLEWIGFISYSGITNYNPSLQGRVTISRDNSKNTLYLQMNSLRAEDTAVYYCARSLARTTAMDYWGEGTLVTVSSASTKGPSVFPLAPSSKSTSGGTAALGCLVKDYFPEPVTVSWNSGALTSGVHTFPAVLQSSGLYSLSSVVTVPSSSLGTQTYICNVNHKPSNTKVDKKVEPKSCDKTHTCPPCPAPELRGGPKVFLFPPKPKDTLYISRAPEVTCVVVDVSHEDPEVKFNWYVDGVEVHNAKTKPREEQYNSTYRVVSVLTVLHQDWLNGKEYKCKVSNKALPAPIEKTISKAKGQPREPQVYTLPPSRDELTKNQVSLTCLVKGFYPSDIAVEWESNGQPENNYKTTPPVLDSDGSFFLYSKLTVDKSRWQQGNVFSCSVMHEALHYHVTRKELSLSP
light: not shown
notes: EU numbering; copies: 2 + 2
B2: IgG1-F1271 (antibody)
heavy: B1 heavy with S256A, A258T, H435D
light: not shown
notes: EU numbering; copies: 2 + 2
B3: IgG1-F1300 (antibody)
heavy: B1 heavy with A258E, V438T, R440K, E442D
light: not shown
notes: EU numbering; copies: 2 + 2
B4: IgG1-F1292 (antibody)
heavy: B1 heavy with Y254M, A258T, H435D, Y436W
light: not shown
notes: EU numbering; copies: 2 + 2
B5: IgG1-F1306 (antibody)
heavy: B1 heavy with A258T, H435D, R440K
light: not shown
notes: EU numbering; copies: 2 + 2
B6: IgG1-F1317 (antibody)
heavy: B1 heavy with R237L, A258T, P331K, R440Q, E442S
light: not shown
notes: EU numbering; copies: 2 + 2
B7: IgG1-F1298 (antibody)
heavy: B1 heavy with A258E, H435D, V438F
light: not shown
notes: EU numbering; copies: 2 + 2
B8: IgG1-F1296 (antibody)
heavy: B1 heavy with A258E, H435D, V438Y
light: not shown
notes: EU numbering; copies: 2 + 2
B9: IgG1-F1295 (antibody)
heavy: B1 heavy with A258E, V438F
light: not shown
notes: EU numbering; copies: 2 + 2
B10: IgG1-F1280 (antibody)
heavy: B1 heavy with A258G, H435D
light: not shown
notes: EU numbering; copies: 2 + 2
B11: IgG1-F1266 (antibody)
heavy: B1 heavy with A258N
light: not shown
notes: EU numbering; copies: 2 + 2
B12: IgG1-F1311 (antibody)
heavy: B1 heavy with A258T, V424A, S426A, H435D, R440Q, E442S
light: not shown
notes: EU numbering; copies: 2 + 2
B13: IgG1-F1276 (antibody)
heavy: B1 heavy with R440K, E442D
light: not shown
notes: EU numbering; copies: 2 + 2
B14: IgG1-F1285 (antibody)
heavy: B1 heavy with S256T, A258T, R440K, E442D
light: not shown
notes: EU numbering; copies: 2 + 2
B15: IgG1-F1293 (antibody)
heavy: B1 heavy with A258E, V438Y
light: not shown
notes: EU numbering; copies: 2 + 2
B16: IgG1-F1281 (antibody)
heavy: B1 heavy with A258G, H435D, R440K, E442D
light: not shown
notes: EU numbering; copies: 2 + 2
B17: IgG1-F1328 (antibody)
heavy: B1 heavy with G238R, A258T
light: not shown
notes: EU numbering; copies: 2 + 2
B18: IgG1-F1307 (antibody)
heavy: B1 heavy with A258T, V424A, S426A, R440Q, E442S
light: not shown
notes: EU numbering; copies: 2 + 2
B19: IgG1-F1269 (antibody)
heavy: B1 heavy with A258T, H435D, R440K, E442D
light: not shown
notes: EU numbering; copies: 2 + 2
B20: IgG1-F1309 (antibody)
heavy: B1 heavy with A258T, R440A, E442A
light: not shown
notes: EU numbering; copies: 2 + 2
B21: IgG1-F1318 (antibody)
heavy: B1 heavy with R237L, A258T, P331R, R440Q, E442S
light: not shown
notes: EU numbering; copies: 2 + 2
B22: IgG1-F1272 (antibody)
heavy: B1 heavy with S256A, A258T, H435D, R440K, E442D
light: not shown
notes: EU numbering; copies: 2 + 2
B23: IgG1-F1320 (antibody)
heavy: B1 heavy with S256T, A258T, E442D
light: not shown
notes: EU numbering; copies: 2 + 2
B24: IgG1-F1291 (antibody)
heavy: B1 heavy with A258T, H435D, R440Q, E442S
light: not shown
notes: EU numbering; copies: 2 + 2
B25: IgG1-F1308 (antibody)
heavy: B1 heavy with A258T, V424L, S426L, R440Q, E442S
light: not shown
notes: EU numbering; copies: 2 + 2
B26: IgG1-F1325 (antibody)
heavy: B1 heavy with L236A, R237A, K241S, A258T, N299A, R440Q, E442S
light: not shown
notes: EU numbering; copies: 2 + 2
B27: IgG1-F1314 (antibody)
heavy: B1 heavy with A258T, H435D, R440L, E442L
light: not shown
notes: EU numbering; copies: 2 + 2
B28: IgG1-F1288 (antibody)
heavy: B1 heavy with A258E, R440K, E442D
light: not shown
notes: EU numbering; copies: 2 + 2
B29: IgG1-F1265 (antibody)
heavy: B1 heavy with A258G
light: not shown
notes: EU numbering; copies: 2 + 2
B30: IgG1-F1282 (antibody)
heavy: B1 heavy with A258N, R440K, E442D
light: not shown
notes: EU numbering; copies: 2 + 2
B31: IgG1-F1315 (antibody)
heavy: B1 heavy with R237L, G239K, A258T, R440Q, E442S
light: not shown
notes: EU numbering; copies: 2 + 2
B32: IgG1-F1316 (antibody)
heavy: B1 heavy with R237L, G239R, A258T, R440Q, E442S
light: not shown
notes: EU numbering; copies: 2 + 2
B33: IgG1-F1304 (antibody)
heavy: B1 heavy with A258E, H435D, V438F, R440K, E442D
light: not shown
notes: EU numbering; copies: 2 + 2
B34: IgG1-F1310 (antibody)
heavy: B1 heavy with A258T, R440L, E442L
light: not shown
notes: EU numbering; copies: 2 + 2
B35: IgG1-F1319 (antibody)
heavy: B1 heavy with R237L, K241S, A258T, L330Y, V438Y, R440Q, E442S
light: not shown
notes: EU numbering; copies: 2 + 2
B36: IgG1-F1270 (antibody)
heavy: B1 heavy with S256A, A258T, R440K, E442D
light: not shown
notes: EU numbering; copies: 2 + 2
B37: IgG1-F1277 (antibody)
heavy: B1 heavy with H435D
light: not shown
notes: EU numbering; copies: 2 + 2
B38: IgG1-F1290 (antibody)
heavy: B1 heavy with A258E, H435D, R440K, E442D
light: not shown
notes: EU numbering; copies: 2 + 2
B39: IgG1-F1283 (antibody)
heavy: B1 heavy with A258N, H435D
light: not shown
notes: EU numbering; copies: 2 + 2
B40: IgG1-F1330 (antibody)
heavy: B1 heavy with G238R, A258E
light: not shown
notes: EU numbering; copies: 2 + 2
B41: IgG1-F1323 (antibody)
heavy: B1 heavy with S256T, A258T, H435D, R440K
light: not shown
notes: EU numbering; copies: 2 + 2
B42: IgG1-F1284 (antibody)
heavy: B1 heavy with A258N, H435D, R440K, E442D
light: not shown
notes: EU numbering; copies: 2 + 2
B43: IgG1-F1273 (antibody)
heavy: B1 heavy with A258Q, R440K, E442D
light: not shown
notes: EU numbering; copies: 2 + 2
B44: IgG1-F1275 (antibody)
heavy: B1 heavy with A258Q, H435D, R440K, E442D
light: not shown
notes: EU numbering; copies: 2 + 2
B45: IgG1-F1305 (antibody)
heavy: B1 heavy with A258T, H435D, E442D
light: not shown
notes: EU numbering; copies: 2 + 2
B46: IgG1-F1321 (antibody)
heavy: B1 heavy with S256T, A258T, R440K
light: not shown
notes: EU numbering; copies: 2 + 2
B47: IgG1-F1302 (antibody)
heavy: B1 heavy with A258E, H435D, V438Y, R440K, E442D
light: not shown
notes: EU numbering; copies: 2 + 2
B48: IgG1-F1274 (antibody)
heavy: B1 heavy with A258Q, H435D
light: not shown
notes: EU numbering; copies: 2 + 2
B49: IgG1-F1279 (antibody)
heavy: B1 heavy with A258G, R440K, E442D
light: not shown
notes: EU numbering; copies: 2 + 2
B50: IgG1-F1329 (antibody)
heavy: B1 heavy with G238R, S256T, A258T
light: not shown
notes: EU numbering; copies: 2 + 2
B51: IgG1-F1313 (antibody)
heavy: B1 heavy with A258T, H435D, R440A, E442A
light: not shown
notes: EU numbering; copies: 2 + 2
B52: IgG1-F1286 (antibody)
heavy: B1 heavy with S256T, A258T, H435D
light: not shown
notes: EU numbering; copies: 2 + 2
B53: IgG1-F1324 (antibody)
heavy: B1 heavy with L236A, R237A, K241S, A258T, R440Q, E442S
light: not shown
notes: EU numbering; copies: 2 + 2
B54: IgG1-F1312 (antibody)
heavy: B1 heavy with A258T, V424L, S426L, H435D, R440Q, E442S
light: not shown
notes: EU numbering; copies: 2 + 2
B55: IgG1-F1289 (antibody)
heavy: B1 heavy with A258E, H435D
light: not shown
notes: EU numbering; copies: 2 + 2

Where a chain is given by its changes, count along the chain named.

The target of the test is T1, soluble human FcRn (human, UniProt P55899 24-297; P61769 21-119).
T1 construct: Heterodimer of FcRn alpha chain and beta2-microglobulin; also called hFcRn
T1 sequence (P55899 24-297 limits assumed, chain 1 of 2): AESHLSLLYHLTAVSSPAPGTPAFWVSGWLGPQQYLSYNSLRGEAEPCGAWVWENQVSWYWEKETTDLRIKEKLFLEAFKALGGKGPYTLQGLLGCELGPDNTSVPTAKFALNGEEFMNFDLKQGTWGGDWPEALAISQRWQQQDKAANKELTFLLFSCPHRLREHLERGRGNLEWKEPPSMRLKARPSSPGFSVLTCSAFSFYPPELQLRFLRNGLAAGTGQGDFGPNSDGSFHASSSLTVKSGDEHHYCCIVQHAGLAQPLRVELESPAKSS
T1 sequence (P61769 21-119 limits assumed, chain 2 of 2): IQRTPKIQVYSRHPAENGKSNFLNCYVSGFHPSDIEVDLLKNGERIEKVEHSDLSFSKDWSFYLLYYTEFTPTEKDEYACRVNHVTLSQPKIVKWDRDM
Briefly: SPR (Biacore T100), antibody captured by protein L, hFcRn as analyte, pH 7.0, 25 C.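 Also: KD calculated from fitted association and dissociation rate constants of the sensorgrams, protein L amine-coupled to the sensor chip, sodium phosphate running buffer with NaCl and Tween20.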
Description: An appropriate amount of protein L (ACTIGEN) was immobilized onto Sensor chip CM4 (GE Healthcare) by the amino coupling method, and the chip was allowed to capture an antibody of interest. Then, diluted FcRn solutions and running buffer (as a reference solution) were injected to allow human FcRn to interact with the antibody captured on the sensor chip. The running buffer used comprised 50 mmol/l sodium phosphate, 150 mmol/l NaCl, and 0.05% (w/v) Tween20 (pH 7.0). FcRn was diluted using each buffer. The chip was regenerated using 10 mmol/l glycine-HCl (pH 1.5). Assays were carried out exclusively at 25 degrees C. The association rate constant ka (1/Ms) and dissociation rate constant kd (1/s), both of which are kinetic parameters, were calculated based on the sensorgrams obtained in the assays, and KD (M) of each antibody for human FcRn was determined from these values. Each parameter was calculated using Biacore T100 Evaluation Software (GE Healthcare).
Usually Kd stands for a measure of binding affinity in units of concentration. Low values mean tighter binding, high ones weaker binding. Turning to B1, the Kd was 130 nM.

Take B2: the Kd turned out to be 200 nM.

B3 came in with a Kd of 160 nM.

For the molecule B4, the Kd came to 420 nM.

As for B5, binding was characterised by a dissociation constant (Kd) of 190 nM.

B6 registered a Kd of 140 nM.

For B7, the Kd amounted to 150 nM.

In the case of B8, binding was characterised by a dissociation constant (Kd) of 230 nM.

For B9, the Kd came to 98 nM.

The molecule B10 registered a Kd of 210 nM.

As to B11, the Kd turned out to be 100 nM.

Molecule B12 returned a Kd of 170 nM.

B13 came in with a Kd of 100 nM.

As for B14, the Kd came out at 94 nM.

As for B15, binding was characterised by a dissociation constant (Kd) of 160 nM.

Turning to B16, the Kd was 170 nM.

The molecule B17 came in with a dissociation constant Kd of 150 nM.

With B18, the affinity, expressed as Kd, was 140 nM.

B19 yielded a Kd of 170 nM.

Take B20: the affinity, expressed as Kd, was 130 nM.

With B21, the Kd stood at 140 nM.

On to B22, for which the dissociation constant (Kd) was determined as 170 nM.

In turn, B23 displayed an equilibrium dissociation constant (Kd) of 120 nM.

B24 showed a Kd of 150 nM.

On to B25, for which the Kd was 210 nM.

Take B26: binding was put at a Kd of 210 nM.

Consider B27, for which the dissociation constant Kd came to 230 nM.

B28: the Kd was 79 nM.

Consider B29, for which the Kd amounted to 160 nM.

As to B30, the Kd stood at 77 nM.

The molecule B31 showed a Kd of 150 nM.

For the molecule B32, the Kd stood at 150 nM.

The molecule B33 showed a dissociation constant (Kd) of 120 nM.

As to B34, the Kd turned out to be 230 nM.

As for B35, the affinity, expressed as Kd, was 270 nM.

Consider B36, for which the Kd amounted to 120 nM.

Regarding B37, binding was characterised by a dissociation constant (Kd) of 170 nM.

B38: the Kd was found to be 110 nM.

B39 showed a Kd of 130 nM.

As to B40, the Kd came out at 100 nM.

Take B41: the Kd came to 150 nM.

Turning to B42, the Kd amounted to 110 nM.

As to B43, binding was put at a Kd of 150 nM.

Take B44: the Kd is 210 nM.

B45 showed a Kd of 200 nM.

Molecule B46 displayed a Kd of 100 nM.

As to B47, the Kd came out at 220 nM.

B48 yielded a Kd of 250 nM.

B49: the Kd is 120 nM.

In the case of B50, the affinity, expressed as Kd, was 130 nM.

As to B51, the Kd turned out to be 180 nM.

B52 yielded a Kd of 160 nM.

Take B53: the dissociation constant Kd stood at 130 nM.

Consider B54, for which binding was put at a Kd of 180 nM.

B55: the Kd is 130 nM.

For the origin of these results see US20140363428A1 (Chugai, published 2014).
